Article PMC10011331, “Vitamin C transporter SVCT1 serves a physiological role as a urate importer: functional analyses and in vivo investigations” (Pflugers Archiv, 2023)

Assays:
[1] = tested on: T1, O=c1[nH]c(=O)c2[nH]c(=O)[nH]c2[nH]1; experiment: cells, lysate or membranes; type: cell-based, Homo sapiens; conditions: Na+ urate and vitamin C could compete for SVCT1-mediated transport
T1 construct: full-length human SVCT1 WT, EGFP fusion (pEGFP-N1)

[2] = tested on: T2, O=c1[nH]c(=O)c2[nH]c(=O)[nH]c2[nH]1; experiment: cells, lysate or membranes; type: cell-based, Mus musculus; conditions: Na+
T2 construct: mouse Svct1 WT, EGFP fusion

Row | Substance | Km [1] [µM] | Km [2] [µM]
1 | SVCT1 (Homo sapiens) | 1511 | 
2 | Svct1 (Mus musculus) |  | 646.9
